Results: article PMC7467306

Tests used:
[1] = biological target: human insulin receptor isoform A (human) (UniProt P06213); test: radioligand binding; competition with [125I]-monoiodotyrosyl-TyrA14-insulin on intact human IM-9 lymphocytes (human IR-A)
[2] = biological target: human IGF-1 receptor (human) (UniProt P08069); test: radioligand binding; competition with [125I]-monoiodotyrosyl-IGF1 on intact mouse fibroblasts transfected with human IGF-1R and with deleted mouse IGF-1R
[3] = biological target: His-tagged domain 11 (D11) of human IGF2R (human) (UniProt P11717); test: radioligand binding; competition of unlabeled ligand (10^-12-10^-6 M) with [125I]-monoiodotyrosyl-Tyr2-IGF2 (43000 cpm, 0.02 nM) for D11 held in wells on iBodies; 16 h at 5 °C, HEPES binding buffer pH 7.6 with 1 % BSA; one-site fit with ligand depletion, Kd of the tracer set to 2 nM
UniProt P11717, sequence (P11717 1508-1651): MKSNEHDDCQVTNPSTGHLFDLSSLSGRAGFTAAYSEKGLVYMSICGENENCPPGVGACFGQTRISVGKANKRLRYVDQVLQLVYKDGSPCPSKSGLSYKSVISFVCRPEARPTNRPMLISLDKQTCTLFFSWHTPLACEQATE

UniProt P06213, sequence (P06213 other isoform, or with tags, fused parts or gaps): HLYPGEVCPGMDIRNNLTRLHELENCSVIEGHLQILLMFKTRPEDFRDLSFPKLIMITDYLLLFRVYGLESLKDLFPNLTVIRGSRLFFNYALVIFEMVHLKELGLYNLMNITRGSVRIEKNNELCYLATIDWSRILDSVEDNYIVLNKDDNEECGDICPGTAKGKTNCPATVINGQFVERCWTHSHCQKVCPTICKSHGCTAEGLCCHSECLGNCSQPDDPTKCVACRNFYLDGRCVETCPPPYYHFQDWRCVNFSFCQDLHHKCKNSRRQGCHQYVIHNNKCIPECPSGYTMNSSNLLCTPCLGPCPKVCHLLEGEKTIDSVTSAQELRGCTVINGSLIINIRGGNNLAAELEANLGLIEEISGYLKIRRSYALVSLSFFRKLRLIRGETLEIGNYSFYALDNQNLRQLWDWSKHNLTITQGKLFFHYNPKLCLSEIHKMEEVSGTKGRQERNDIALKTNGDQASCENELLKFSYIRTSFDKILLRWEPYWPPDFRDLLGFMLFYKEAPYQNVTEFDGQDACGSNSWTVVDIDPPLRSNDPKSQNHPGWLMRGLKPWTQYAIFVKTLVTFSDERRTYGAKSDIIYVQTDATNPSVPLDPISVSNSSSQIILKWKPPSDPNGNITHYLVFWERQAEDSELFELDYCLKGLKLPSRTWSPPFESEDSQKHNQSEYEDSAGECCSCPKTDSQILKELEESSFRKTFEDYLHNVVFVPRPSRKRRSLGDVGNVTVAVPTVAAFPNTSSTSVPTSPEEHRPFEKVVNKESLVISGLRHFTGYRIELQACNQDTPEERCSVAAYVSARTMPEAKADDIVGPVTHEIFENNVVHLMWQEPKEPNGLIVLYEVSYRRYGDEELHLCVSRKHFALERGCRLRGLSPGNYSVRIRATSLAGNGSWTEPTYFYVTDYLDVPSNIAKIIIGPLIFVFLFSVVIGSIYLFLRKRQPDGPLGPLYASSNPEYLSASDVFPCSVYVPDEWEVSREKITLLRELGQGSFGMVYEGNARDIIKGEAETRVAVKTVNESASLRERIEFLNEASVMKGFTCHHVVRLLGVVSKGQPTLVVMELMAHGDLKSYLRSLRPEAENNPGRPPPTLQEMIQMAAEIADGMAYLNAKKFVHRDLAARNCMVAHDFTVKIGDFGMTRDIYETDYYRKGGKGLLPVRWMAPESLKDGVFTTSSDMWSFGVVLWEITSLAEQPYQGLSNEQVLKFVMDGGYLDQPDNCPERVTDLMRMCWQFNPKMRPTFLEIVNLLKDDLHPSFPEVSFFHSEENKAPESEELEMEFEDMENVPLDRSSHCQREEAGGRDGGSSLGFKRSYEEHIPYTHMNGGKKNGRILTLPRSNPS

Q: With Leu19-IGF2 analog (ligand) as the substance, how does the Kd [1] read?
A: 7.3 nM

Q: What about the Kd [2] of the same substance?
A: 1.1 nM

Q: And the Kd [3]?
A: 0.28 nM
